Data as given in patent US20140343095A1, “Methods of Diagnosing and Treating Multiple Sclerosis” (The Brigham and Women's Hospital, Inc., priority 2009, published 2014).

System: PARP-1
Experiment: FACS PARP-1 activity in innate and adaptive immune cells treated with HSP60 or 15-HC
Format: cell-based, human
Conditions: CD4+ T cells, CD8+ T cells, B cells of healthy controls; HSP60 1, 5, 10 ng/ml; 15-HC 1, 5, 10 ug/ml
Description: FIGS. 17A-C are bar graphs showing that 15-HC, but not HSP60, activates PARP-1 in cells of the innate immune system. Mean PARP-1 activity as determined by FACS in classical monocytes (17A), inflammatory monocytes (17B) and dendritic cells (17C) of healthy controls (HC) treated with activated with HSP60, 15-HC or left untreated. The data are shown as mean fluorescence intensity (MFI)±SD of 5 samples/group.
FIGS. 18A-C are bar graphs showing that both 15-HC and HSP60 activate PARP-1 in cells of the adaptive immune system. Mean PARP-1 activity as determined by FACS in CD4+ T cells (18A), CD8+ T cells (18B) and B cells (18C) of healthy controls (HC) treated with activated with HSP60, 15-HC or left untreated. The data are shown as mean fluorescence intensity (MFI)±SD of 5 samples/group.
A new FACS-based method was developed to detect PARP-1 activation based on the intracellular detection of the PARP-1 product PAR with specific antibodies. Briefly, the cells were incubated with antibodies to CD16/32 to block unspecific antibody binding, and then stained for surface markers. […] The samples were then analyzed by FACS.
To investigate whether the increased activity of the TLR2/PARP-1 axis in SPMS patients resulted from increased levels of TLR2 ligands, the levels of 15-HC and HSP60 were measured in serum samples from healthy controls, RRMS and SPMS patients. […]

B1: HSP60: TLR2 agonist HSP60 (protein, UniProt P10809 27-573, looked up)
60 kDa heat shock protein, …: AKDVKFGADARALMLQGVDLLADAVAVTMGPKGRTVIIEQSWGSPKVTKDGVTVAKSIDLKDKYKNIGAKLVQDVANNTNEEAGDGTTTATVLARSIAKEGFEKISKGANPVEIRRGVMLAVDAVIAELKKQSKPVTTPEEIAQVATISANGDKEIGNIISDAMKKVGRKGVITVKDGKTLNDELEIIEGMKFDRGYISPYFINTSKGQKCEFQDAYVLLSEKKISSIQSIVPALEIANAHRKPLVIIAEDVDGEALSTLVLNRLKVGLQVVAVKAPGFGDNRKNQLKDMAIATGGAVFGEEGLTLNLEDVQPHDLGKVGEVIVTKDDAMLLKGKGDKAQIEKRIQEIIEQLDVTTSEYEKEKLNERLAKLSDGVAVLKVGGTSDVEVNEKKDRVTDALNATRAAVEEGIVLGGGCALLRCIPALDSLTPANEDQKIGIEIIKRTLKIPAMTIAKNAGVEGSLIVEKIMQSSSEVGYDAMAGDFVNMVEKGIIDPTKVVRTALLDAAGVASLLTTAEVVVTEIPKEEKDPGMGAMGGMGGGMGGGMF
For B1, the “PARP-1 activation in cells of the adaptive immune system (FIG. 18)” value was “could activate”.
